B1: rh Midkine Protein: ligand of GPC2 (protein, UniProt P21741 21-143, looked up)
Midkine: VAKKKDKVKKGGPGSECAEWAWGPCTPSSKDCGVGFREGTCGAQTQRIRCRVPCNWKKEFGADCKYKFENWGACDGGTGTKVRQGTLKKARYNAQCQETIRVTKPCTPKTKAKAKAKKGKGKD
B2: WNT-3A: ligand of RYK/FZD3/FZD7/FZD1/LRP6 (protein, UniProt P56704 19-352, looked up)
Protein Wnt-3a: SYPIWWSLAVGPQYSSLGSQPILCASIPGLVPKQLRFCRNYVEIMPSVAEGIKIGIQECQHQFRGRRWNCTTVHDSLAIFGPVLDKATRESAFVHAIASAGVAFAVTRSCAEGTAAICGCSSRHQGSPGKGWKWGGCSEDIEFGGMVSREFADARENRPDARSAMNRHNNEAGRQAIASHMHLKCKCHGLSGSCEVKTCWWSQPDFRAIGDFLKDKYDSASEMVVEKHRESRGWVETLRPRYTYFKVPTERDLVYYEASPNFCEPNPETGSFGTRDRTCNVSSHGIDGCDLLCCGRGHNARAERRREKCRCVFHWCCYVSCQECTRVYDVHTCK
B3: CNTN2: ligand of CNTNAP2 (protein, UniProt Q02246 31-1012, looked up)
Contactin-2: SQTTFGPVFEDQPLSVLFPEESTEEQVLLACRARASPPATYRWKMNGTEMKLEPGSRHQLVGGNLVIMNPTKAQDAGVYQCLASNPVGTVVSREAILRFGFLQEFSKEERDPVKAHEGWGVMLPCNPPAHYPGLSYRWLLNEFPNFIPTDGRHFVSQTTGNLYIARTNASDLGNYSCLATSHMDFSTKSVFSKFAQLNLAAEDTRLFAPSIKARFPAETYALVGQQVTLECFAFGNPVPRIKWRKVDGSLSPQWTTAEPTLQIPSVSFEDEGTYECEAENSKGRDTVQGRIIVQAQPEWLKVISDTEADIGSNLRWGCAAAGKPRPTVRWLRNGEPLASQNRVEVLAGDLRFSKLSLEDSGMYQCVAENKHGTIYASAELAVQALAPDFRLNPVRRLIPAARGGEILIPCQPRAAPKAVVLWSKGTEILVNSSRVTVTPDGTLIIRNISRSDEGKYTCFAENFMGKANSTGILSVRDATKITLAPSSADINLGDNLTLQCHASHDPTMDLTFTWTLDDFPIDFDKPGGHYRRTNVKETIGDLTILNAQLRHGGKYTCMAQTVVDSASKEATVLVRGPPGPPGGVVVRDIGDTTIQLSWSRGFDNHSPIAKYTLQARTPPAGKWKQVRTNPANIEGNAETAQVLGLTPWMDYEFRVIASNILGTGEPSGPSSKIRTREAAPSVAPSGLSGGGGAPGELIVNWTPMSREYQNGDGFGYLLSFRRQGSTHWQTARVPGADAQYFVYSNESVRPYTPFEVKIRSYNRRGDGPESLTALVYSAEEEPRVAPTKVWAKGVSSSEMNVTWEPVQQDMNGILLGYEIRYWKAGDKEAAADRVRTAGLDTSARVSGLHPNTKYHVTVRAYNRAGTGPASPSANATTMKPPPRRPPGNISWTFSSSSLSIKWDPVVPFRNESAVTGYKMLYQNDLHLTPTLHLTGKNWIEIPVPEDIGHALVQIRTTGPGGDGIPAEVHIVRNGGTSMMVEN
B4: WNT-1: ligand of RYK/FZD3/FZD7/FZD1/ROR2/LRP6 (protein, UniProt P04628 28-370, looked up)
Proto-oncogene Wnt-1: ANSSGRWWGIVNVASSTNLLTDSKSLQLVLEPSLQLLSRKQRRLIRQNPGILHSVSGGLQSAVRECKWQFRNRRWNCPTAPGPHLFGKIVNRGCRETAFIFAITSAGVTHSVARSCSEGSIESCTCDYRRRGPGGPDWHWGGCSDNIDFGRLFGREFVDSGEKGRDLRFLMNLHNNEAGRTTVFSEMRQECKCHGMSGSCTVRTCWMRLPTLRAVGDVLRDRFDGASRVLYGNRGSNRASRAELLRLEPEDPAHKPPSPHDLVYFEKSPNFCTYSGRLGTAGTAGRACNSSSPALDGCELLCCGRGHRTRTQRVTERCNCTFHWCCHVSCRNCTHTRVLHECL
B5: GDF9: ligand of ACVR2A/BMPR1B/BMPR1A/BMPR2/TGFBR1 (protein, UniProt O60383 320-454, looked up)
Growth/differentiation factor …: GQETVSSELKKPLGPASFNLSEYFRQFLLPQNECELHDFRLSFSQLKWDNWIVAPHRYNPRYCKGDCPRAVGHRYGSPVHTMVQNIIYEKLDSSVPRPSCVPAKYSPLSVLTIEPDGSIAYKEYEDMIATKCTCR
B6: rh HB-EGF: ligand of CD9 (protein, UniProt Q99075 63-148, looked up)
Heparin-binding EGF-like …: DLQEADLDLLRVTLSSKPQALATPNKEEHGKRKKKGKGLGKKRDPCLRKYKDFCIHGECKYVKELRAPSCICHPGYHGERCHGLSL
B7: rh MIF: ligand of CXCR4/CD74 (protein, UniProt P14174 2-115, looked up)
Macrophage migration …: PMFIVNTNVPRASVPDGFLSELTQQLAQATGKPPQYIAVHVVPDQLMAFGGSSEPCALCSLHSIGKIGGAQNRSYSKLLCGLLAERLRISPDRVYINYYDMNAANVGWNNSTFA
B8: GDF6/BMP13: ligand of BMPR1B/BMPR1A/BMPR2 (protein, UniProt Q6KF10 336-455, looked up)
Growth/differentiation factor …: TAFASRHGKRHGKKSRLRCSKKPLHVNFKELGWDDWIIAPLEYEAYHCEGVCDFPLRSHLEPTNHAIIQTLMNSMDPGSTPPSCCVPTKLTPISILYIDAGNNVVYKQYEDMVVESCGCR
B9: GDF11/BMP11: ligand of BMPR1B/BMPR1A/BMPR2/ACVR2B/ACVR1B/ACVR2A (protein, UniProt O95390 299-407, looked up)
Growth/differentiation factor …: NLGLDCDEHSSESRCCRYPLTVDFEAFGWDWIIAPKRYKANYCSGQCEYMFMQKYPHTHLVQQANPRGSAGPCCTPTKMSPINMLYFNDKQQIIYGKIPGMVVDRCGCS
B10: Artemin (ARTN): ligand of GFRA1/GFRA2/RET/GFRA3 (protein, UniProt Q5T4W7 108-220, looked up)
Artemin: AGGPGSRARAAGARGCRLRSQLVPVRALGLGHRSDELVRFRFCSGSCRRARSPHDLSLASLLGAGALRPPPGSRPVSQPCCRPTRYEAVSFMDVNSTWRTVDRLSATACGCLG
B11: rh ADAM10: ligand of CADM1/TSPAN14/TSPAN15/TSPAN12 (protein, UniProt O14672 214-748, looked up)
Disintegrin and …: TTSAEKNTCQLYIQTDHLFFKYYGTREAVIAQISSHVKAIDTIYQTTDFSGIRNISFMVKRIRINTTADEKDPTNPFRFPNIGVEKFLELNSEQNHDDYCLAYVFTDRDFDDGVLGLAWVGAPSGSSGGICEKSKLYSDGKKKSLNTGIITVQNYGSHVPPKVSHITFAHEVGHNFGSPHDSGTECTPGESKNLGQKENGNYIMYARATSGDKLNNNKFSLCSIRNISQVLEKKRNNCFVESGQPICGNGMVEQGEECDCGYSDQCKDECCFDANQPEGRKCKLKPGKQCSPSQGPCCTAQCAFKSKSEKCRDDSDCAREGICNGFTALCPASDPKPNFTDCNRHTQVCINGQCAGSICEKYGLEECTCASSDGKDDKELCHVCCMKKMDPSTCASTGSVQWSRHFSGRTITLQPGSPCNDFRGYCDVFMRCRLVDADGPLARLKKAIFSPELYENIAEWIVAHWWAVLLMGIALIMLMAGFIKICSVHTPSSNPKLPPPKPLPGTLKRRRPPQPIQQPQRQRPRESYQMGHMRR
B12: Neurturin (NRTN): ligand of GFRA1/GFRA2/RET/GFRA3 (protein, UniProt Q99748 96-197, looked up)
Neurturin: ARLGARPCGLRELEVRVSELGLGYASDETVLFRYCAGACEAAARVYDLGLRRLRQRRRLRRERVRAQPCCRPTAYEDEVSFLDAHSRYHTVHELSARECACV
B13: GDNF: recombinant human glial cell line-derived neurotrophic factor (protein, UniProt P39905 78-211, looked up)
Glial cell line-derived …: SPDKQMAVLPRRERNRQAAAANPENSRGKGRRGQRGKNRGCVLTAIHLNVTDLGLGYETKEELIFRYCSGSCDAAETTYDKILKNLSRNRRLVSDKVGQACCRPIAFDDDLSFLDDNLVYHILRKHSAKRCGCI
B14: BMP8b: ligand of BMPR1B/BMPR1A/BMPR2 (protein, UniProt P34820 264-402, looked up)
Bone morphogenetic protein 8B: AVRPLRRRQPKKSNELPQANRLPGIFDDVHGSHGRQVCRRHELYVSFQDLGWLDWVIAPQGYSAYYCEGECSFPLDSCMNATNHAILQSLVHLMMPDAVPKACCAPTKLSATSVLYYDSSNNVILRKHRNMVVKACGCH
B15: DLK2: ligand of NOTCH1 (protein, UniProt Q6UY11 27-383, looked up)
Protein delta homolog 2: DDCSSHCDLAHGCCAPDGSCRCDPGWEGLHCERCVRMPGCQHGTCHQPWQCICHSGWAGKFCDKDEHICTTQSPCQNGGQCMYDGGGEYHCVCLPGFHGRDCERKAGPCEQAGSPCRNGGQCQDDQGFALNFTCRCLVGFVGARCEVNVDDCLMRPCANGATCLDGINRFSCLCPEGFAGRFCTINLDDCASRPCQRGARCRDRVHDFDCLCPSGYGGKTCELVLPVPDPPTTVDTPLGPTSAVVVPATGPAPHSAGAGLLRISVKEVVRRQEAGLGEPSLVALVVFGALTAALVLATVLLTLRAWRRGVCPPGPCCYPAPHYAPACQDQECQVSMLPAGLPLPRDLPPEPGKTTAL

These molecules were tested on testicular germ cell proliferation (assay: Screen of SSC / differentiating spermatogonia receptor ligands in the iterative culture process). Details: ligand at the concentration listed in Table 5; effective to date at improving germ cell proliferation.
Format: cell-based, human
Source text: A process for identification and selection of receptor ligands capable of improving testicular germ cell proliferation was developed. The process uses expression data obtained by mining scRNA-seq data obtained from testicular tissue (FIG. 27). The process systematically prioritizes candidates for spermatogonia ligands through a series of bioinformatics analyses and filtering. The process comprises identifying and selecting potential ligands based on their receptor expression in State 1 SSCs (active stem cells) and State 2/3 differentiating spermatogonia (differentiated germ cells with strong proliferation ability), or any combination thereof.
More specifically, the approach was based on the single-cell RNA sequencing transcriptome profile of the adult human testis atlas (Guo, J., Grow, E. J., Mlcochova, H., Maher, G. J., Lindskog, C., Nie, X., Guo, Y., Takei, Y., Yun, J., Cai, L., et al. (2018). The adult human testis transcriptional cell atlas. Cell Research 28, 1141. 10.1038/s41422-018-0099-2; the disclosure of all of which is incorporated herein in its entirety), which provides a comprehensive characterization of cell types in the human adult testis. Pseudo-bulk RNA-seq analysis was used, which involves aggregating individual cells into groups to enhance the receptor gene expression signal on SSCs and differentiating spermatogonia. Each individual cell is assigned to its corresponding cell type cluster based and summing the expression values of all cells within each cluster to create pseudo-bulk samples.
The CellTalkDB database was used to identify receptors expressed in SSCs/differentiating spermatogonia. Specifically, the receptors whose expression in SSCs/differentiating spermatogonia ranks within the top 150 were selected, as expression levels below this point are generally low in these cell populations. […] This filtering step helps to focus on receptors that are more specific to the target cell populations. Using the CellTalkDB database, the corresponding ligands for the selected receptors were then identified. The ligand candidates were prioritized based on their expression levels in the testes, and their known functionality.
The identified ligands were then used in the iterative process of the instant disclosure for identifying culture conditions that support testicular germ cell proliferation in vitro to refine the culture conditions.
rh Secretin: ligand of VIPR2 was tested, and the Effective was “No”. With FGF2: basic fibroblast growth factor the Effective was “Yes”. For `C[C@]12CC[C@H]3[C@@H](CCC4=CC(=O)CC[C@@]43C)[C@@H]1CC[C@@H]2O` [Testosterone, reference compound], the Effective was “Yes”. “rh LIF: leukemia inhibitory factor; ligand of IL6ST/LIFR” was tested, and the Effective was “Yes”. rh beta-NGF: ligand of KIDINS220 was tested, and the Effective was “Yes”. In the case of rh CXCL12: chemokine; ligand of CXCR4, the Effective is reported as “No”. For B1, the Effective was “Yes”. In the case of B2, the Effective is reported as “Yes”. With B3 the Effective was “No”. With B4 the Effective was “No”. For B5, the Effective was “No”. For B6, the Effective was “Yes”. B7 was tested, and the Effective was “Yes”. B8 was tested, and the Effective was “No”. In the case of B9, the Effective is reported as “No”. For B10, the Effective was “No”. With B11 the Effective was “No”. With B12 the Effective was “Yes”. B13 was tested, and the Effective was “Yes”. With B14 the Effective was “No”. For B15, the Effective was “No”.

Source: patent US20230399608A1, “PROCESS FOR ESTABLISHING A HUMAN TESTICULAR TISSUE CULTURE SYSTEM” (PATERNA BIOSCIENCES INC., priority 2021, published 2023)
